The results in this text go back to the RNAGym collection of RNA variant scans (doi:10.7554/elife.80360).

B1: Hairpin Ribozyme (parent)
chain: GUCCUCUUUCACGUGCGCGUGAAAGAGAGAAGUGAACCAGAGAAACACACGUUGUGGUAUAUUACCUGGUA

Variants of B1 are the subject of the series. The experiment in a line: self-cleavage, relative activity (ratio to wild type); higher = more cleavage; co-transcriptional.
For A39U A47C, the self-cleavage is 0.168.
To G40A C46U belongs 0.147.
To G40A C46G belongs 0.136; to G40A G51A, 0.578.
With G40C A59U, the self-cleavage is 0.198.
To G40U C50U belongs 0.11; to G40C A41G, 0.163; to G40U A49C, 0.118.
Turning to G40U A49U, the self-cleavage stood at 0.0847.
As to G40A G42C, the self-cleavage was determined as 0.0893.
G40U A64G: the self-cleavage was determined as 0.103.
Consider G40U C46U, for which the self-cleavage was 0.106.
On to G40U C46A, for which the self-cleavage worked out at 0.16.
To A39G G69A belongs 0.112; to A39G G69C, 0.101; to A39U C48U, 0.206.
For the variant A39U C48G, the self-cleavage worked out at 0.124.
To A39U C48A belongs 0.135; to G40U G68U, 0.195.
A39U: the self-cleavage came out at 0.424.
For the variant A41C A64C, the self-cleavage was 0.285.
To A39U C65A belongs 0.238.
To A39U C65U belongs 0.201; to A39U U63A, 0.114.
As to A39U U63G, the self-cleavage was determined as 0.137.
On to A39U U62C, for which the self-cleavage worked out at 0.133.
To A39G U63C belongs 0.158.
To A39G U63G belongs 0.147; to G40U A43C, 0.165; to A39G U53C, 0.273.
To A39G U53G belongs 0.207; to A39G C48U, 0.0998.
On to G40U U58C, for which the self-cleavage turned out to be 0.278.
To G40A A45G belongs 0.147.
To A41C C46U belongs 0.0492.
For the variant A41C C46A, the self-cleavage turned out to be 0.0559.
To G40A U58C belongs 0.558.
To A41C A61C belongs 0.456; to G40A A59G, 0.0897; to G40A A47U, 0.154.
As to G40A A47C, the self-cleavage stood at 0.194.
As for G40C G57A, the self-cleavage was 0.111.
Take G40U G54A: the self-cleavage was 0.157.
To G40U G54C belongs 0.155.
To G40U A44G belongs 0.161; to G40U A61U, 0.132; to G40U A61C, 0.0593.
To G40U U55A belongs 0.104; to G40C A71C, 0.401.
Regarding G40C A71G, the self-cleavage is 0.165.
To A39U A64C belongs 0.177; to A39U A64U, 0.16.
To G40A G54C belongs 0.0891.
For the variant G40A G54A, the self-cleavage amounted to 0.19.
To G40A U60C belongs 0.413.
To G40C G56U belongs 0.152; to G40C U67A, 0.0737; to A39U A71G, 0.221.
To G40C A47G belongs 0.0685.
With A39G G51A, the self-cleavage came out at 0.396.
To G40C A61U belongs 0.224.
With G40A A61C, the self-cleavage amounted to 0.14.
On to A39G G57C, for which the self-cleavage came to 0.105.
To A39G G57U belongs 0.0985; to A39G G57A, 0.129; to G40U G69A, 0.143.
To A39U U53G belongs 0.179; to G40C U60C, 0.135; to A39U A59U, 0.184.
To A39U A59G belongs 0.101.
As to A39U A59C, the self-cleavage came to 0.172.
To G40C G42U belongs 0.191.
G40C G42A: the self-cleavage came to 0.0581.
To G40U A59U belongs 0.14; to A39U G54A, 0.122; to G40U A47U, 0.131.
In the case of A39U A41C, the self-cleavage worked out at 0.3.
To A39U A41U belongs 0.458; to G40A G57U, 0.0976.
For the variant G40A G57C, the self-cleavage stood at 0.0825.
To A39G C46U belongs 0.119; to A39G C46G, 0.113; to A39G U62C, 0.145.
A39G U62A: the self-cleavage is 0.12.
To G40C A44U belongs 0.151; to G40C A44G, 0.101; to G40C U62C, 0.143.
In the case of G40C U62A, the self-cleavage came out at 0.116.
Regarding G40C A45U, the self-cleavage came out at 0.267.
Turning to G40C A45G, the self-cleavage was found to be 0.0193.
To A39G U52A belongs 0.23; to A39U G68C, 0.0955; to A39U G68A, 0.199.
To G40C U52A belongs 0.209; to G40A C50U, 0.195; to G40A U63A, 0.161.
To G40A U63C belongs 0.15; to G40C U55G, 0.138.
Consider G40C U55C, for which the self-cleavage was found to be 0.163.
To A41C A59G belongs 0.152; to A41C A71C, 1.53.
To A39G C50G belongs 0.111; to G40U U60G, 0.128; to G40U U70A, 0.123.
To A39U G40C belongs 0.149; to A39U G40U, 0.149.
For A39U G40A, the self-cleavage is 0.134.
As to A39G U67G, the self-cleavage is 0.147.
For A39G U67C, the self-cleavage came out at 0.544.
Take A39G G56C: the self-cleavage was found to be 0.117.
Consider A39U U58C, for which the self-cleavage is 0.46.
On to A39U U58A, for which the self-cleavage was 0.328.
To A39U U58G belongs 0.227.
To G40U G42C belongs 0.0925; to G40U G51A, 0.283.
To G40U G51U belongs 0.179; to A39U U60G, 0.256; to G40A A49C, 0.0897.
For the variant A39U G42A, the self-cleavage turned out to be 0.18.
Regarding A39U G42C, the self-cleavage turned out to be 0.158.
To A39U U70A belongs 0.289; to G40U A41U, 0.221; to A39G U60G, 0.21.
To G40U A71U belongs 0.131; to G40C U58G, 0.199; to A39U A43U, 0.223.
In the case of A39U A43G, the self-cleavage was determined as 0.103.
To G40A U67G belongs 0.147.
In the case of G40U C66G, the self-cleavage turned out to be 0.11.
On to G40U C66A, for which the self-cleavage is 0.593.
Take G40A U55C: the self-cleavage came to 0.144.
Regarding G40A U55G, the self-cleavage was 0.121.
To G40C C50U belongs 0.198; to A39U C46G, 0.164.
G40A G69A: the self-cleavage turned out to be 0.122.
For G40A A71G, the self-cleavage was determined as 0.402.
As for G40C U53A, the self-cleavage is 0.235.
With A39U G51C, the self-cleavage came out at 0.35.
With A39U G51A, the self-cleavage turned out to be 0.585.
To A39G C65A belongs 0.442; to A41C A44G, 0.241; to A41C A44U, 0.154.
To G40U G57A belongs 0.128.
To G40A U53A belongs 0.424; to G40U A45G, 0.132; to G40U A45U, 0.219.
G40U A45C: the self-cleavage stood at 0.103.
With G40A G56A, the self-cleavage came out at 0.117.
Consider G40C C65A, for which the self-cleavage was 0.145.
With G40C C65G, the self-cleavage amounted to 0.156.
To G40C C46G belongs 0.21; to A39U A44G, 0.119; to G40U U67A, 0.159.
To A41C A43U belongs 0.13.
Turning to G40C U70G, the self-cleavage was determined as 0.131.
To G40C U70C belongs 0.13.
Turning to G40C U70A, the self-cleavage came to 0.143.
To A39G U70C belongs 0.372; to A39G U70A, 0.2.
For A39G U70G, the self-cleavage stood at 0.332.
In the case of A41C A47C, the self-cleavage turned out to be 0.468.
As to A39U U55G, the self-cleavage came to 0.108.
To A39U U55C belongs 0.183; to G40C A49G, 0.132.
Take G40C A49U: the self-cleavage came to 0.169.
On to G40C A49C, for which the self-cleavage was 0.0764.
Take G40C G51A: the self-cleavage amounted to 0.115.
